From paper PMC9249326, “Analgesic effects of nerve growth factor‐directed monoclonal antibody on diabetic neuralgia in an animal model” (FEBS Open Bio, 2022)

Key:
[1] = target: T1, 6xHis-tagged human NGF (nerve growth factor) (Homo sapiens, UniProt P01138); assay: ELISA; NGF-6xHis (2 ug/mL) coated at 4 °C overnight; antibodies in threefold series from 100 nM, 1 h; detected with HRP goat anti-human IgG (H + L), TMB, OD450; conditions: both partners purified
T1 construct: nerve growth factor (NGF), human; also called NGF-6xHis; human NGF-6xHis; source: HEK293, transient transfection (pCAT1.0 vector)
T1 sequence (P01138 19-241): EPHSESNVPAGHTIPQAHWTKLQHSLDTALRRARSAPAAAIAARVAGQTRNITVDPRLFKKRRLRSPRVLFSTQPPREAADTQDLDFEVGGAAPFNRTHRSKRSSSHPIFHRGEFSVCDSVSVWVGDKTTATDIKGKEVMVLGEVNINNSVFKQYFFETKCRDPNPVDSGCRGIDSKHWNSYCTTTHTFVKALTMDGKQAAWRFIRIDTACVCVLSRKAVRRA

NGF-6xHis-biotin = target: T2, NGF-6xHis-biotin (human, UniProt P01138, biotin); assay: ELISA; blocking ELISA: TrkA-Fc (2 ug/mL) coated at 4 °C overnight; threefold dilutions of antibody 1 h at room temperature, then NGF-6xHis-biotin (0.5 ug/mL) 30 min; HRP-streptavidin, TMB; conditions: both partners purified
T2 construct: nerve growth factor (NGF), human; source: HEK293, transient transfection (pCAT1.0 vector)
T2 sequence (P01138 122-241): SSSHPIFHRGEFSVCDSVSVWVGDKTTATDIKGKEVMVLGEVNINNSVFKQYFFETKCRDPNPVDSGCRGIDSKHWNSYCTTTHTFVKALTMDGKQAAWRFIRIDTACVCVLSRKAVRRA

B1: tanezumab (antibody, V domains shown)
VH: QVQLQESGPGLVKPSETLSLTCTVSGFSLIGYDLNWIRQPPGKGLEWIGIIWGDGTTDYNSAVKSRVTISKDTSKNQFSLKLSSVTAADTAVYYCARGGYWYATSYYFDYWGQGTLVTVSS
VL: DIQMTQSPSSLSASVGDRVTITCRASQSISNNLNWYQQKPGKAPKLLIYYTSRFHSGVPSRFSGSGSGTDFTFTISSLQPEDIATYYCQQEHTLPYTFGQGTKLEIK
notes: Whole antibody, held on Protein A sensors
EC50 [1]: 0.00934 nM | IC50 (NGF-6xHis-biotin): 1.67 nM
